Results as given in publication PMC3783171, “Sulfolobus chromatin proteins modulate strand displacement by DNA polymerase B1”.

How the values were obtained:
Sso7d = biological target: T1, Sso7d (Sulfolobus solfataricus, UniProt P39476 1-64); assay: EMSA; apparent Kd; 4 mM Mg2+, 25 C; EMSA: 50 mM Tris-HCl pH 8.0, 2 mM beta-mercaptoethanol, 0.1 mg/ml BSA, 4 mM MgCl2, 5% glycerol, 2 nM probe, 10 min at 25 C (room temperature), 5% PAGE in 0.1x TBE; Tm: 10 mM potassium phosphate pH 7.0, 20-90 C; conditions: protein: recombinant, blunt
T1 sequence: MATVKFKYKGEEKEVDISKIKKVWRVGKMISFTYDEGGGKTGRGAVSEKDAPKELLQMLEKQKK

Cren7 [1] = biological target: T2, Cren7 (Sulfolobus solfataricus, UniProt Q97ZE3 1-60); assay: EMSA; 4 mM Mg2+, 25 C; EMSA: 50 mM Tris-HCl pH 8.0, 2 mM beta-mercaptoethanol, 0.1 mg/ml BSA, 4 mM MgCl2, 5% glycerol, 2 nM probe, 10 min at 25 C (room temperature), 5% PAGE in 0.1x TBE; Tm: 10 mM potassium phosphate pH 7.0, 20-90 C; conditions: protein: recombinant; label: 32P on D30; blunt
T2 sequence: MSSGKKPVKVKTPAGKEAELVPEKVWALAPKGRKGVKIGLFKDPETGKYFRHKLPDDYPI

Cren7 [2] = biological target: T2, Cren7; assay: thermal denaturation (A260); EMSA: 50 mM Tris-HCl pH 8.0, 2 mM beta-mercaptoethanol, 0.1 mg/ml BSA, 4 mM MgCl2, 5% glycerol, 2 nM probe, 10 min at 25 C (room temperature), 5% PAGE in 0.1x TBE; Tm: 10 mM potassium phosphate pH 7.0, 20-90 C; conditions: protein: recombinant; blunt

B1: 30-bp RNA:DNA hybrid (R30/Com30) (DNA:RNA)
RNA: UGCUUCCUUCAAUGUGCUGGGAUCCUACAA
DNA: TTGTAGGATCCCAGCACATTGAAGGAAGCA
modifications: R30 strand is RNA
With B1 the Kd (Sso7d; label: 32P on R30) was 500 nM.

B2: 30-bp dsDNA (D30/Com30) (dsDNA)
DNA 1: TGCTTCCTTCAATGTGCTGGGATCCTACAA
DNA 2: B1 DNA
In the case of B2, the binding result (Cren7 [1]) is reported as “binds” and the Kd (Sso7d; label: 32P on D30) is reported as 150 nM.

B3: 15-bp dsDNA (D15/Com15) (dsDNA)
DNA 1: TGCATCCTTCAAGAC
DNA 2: GTCTTGAAGGATGCA
B3: binds (Cren7 [2]).
